Data from IntAct's records for PubMed 17704763.

B1: Adagio protein 1 (Arabidopsis thaliana (Mouse-ear cress)), Q94BT6 (parent)
chain: MEWDSGSDLSADDASSLADDEEGGLFPGGGPIPYPVGNLLHTAPCGFVVTDAVEPDQPIIYVNTVFEMVTGYRAEEVLGGNCRFLQCRGPFAKRRHPLVDSMVVSEIRKCIDEGIEFQGELLNFRKDGSPLMNRLRLTPIYGDDDTITHIIGIQFFIETDIDLGPVLGSSTKEKSIDGIYSALAAGERNVSRGMCGLFQLSDEVVSMKILSRLTPRDVASVSSVCRRLYVLTKNEDLWRRVCQNAWGSETTRVLETVPGAKRLGWGRLARELTTLEAAAWRKLSVGGSVEPSRCNFSACAVGNRVVLFGGEGVNMQPMNDTFVLDLNSDYPEWQHVKVSSPPPGRWGHTLTCVNGSNLVVFGGCGQQGLLNDVFVLNLDAKPPTWREISGLAPPLPRSWHSSCTLDGTKLIVSGGCADSGVLLSDTFLLDLSIEKPVWREIPAAWTPPSRLGHTLSVYGGRKILMFGGLAKSGPLKFRSSDVFTMDLSEEEPCWRCVTGSGMPGAGNPGGVAPPPRLDHVAVNLPGGRILIFGGSVAGLHSASQLYLLDPTEDKPTWRILNIPGRPPRFAWGHGTCVVGGTRAIVLGGQTGEEWMLSELHELSLASYLT
partner: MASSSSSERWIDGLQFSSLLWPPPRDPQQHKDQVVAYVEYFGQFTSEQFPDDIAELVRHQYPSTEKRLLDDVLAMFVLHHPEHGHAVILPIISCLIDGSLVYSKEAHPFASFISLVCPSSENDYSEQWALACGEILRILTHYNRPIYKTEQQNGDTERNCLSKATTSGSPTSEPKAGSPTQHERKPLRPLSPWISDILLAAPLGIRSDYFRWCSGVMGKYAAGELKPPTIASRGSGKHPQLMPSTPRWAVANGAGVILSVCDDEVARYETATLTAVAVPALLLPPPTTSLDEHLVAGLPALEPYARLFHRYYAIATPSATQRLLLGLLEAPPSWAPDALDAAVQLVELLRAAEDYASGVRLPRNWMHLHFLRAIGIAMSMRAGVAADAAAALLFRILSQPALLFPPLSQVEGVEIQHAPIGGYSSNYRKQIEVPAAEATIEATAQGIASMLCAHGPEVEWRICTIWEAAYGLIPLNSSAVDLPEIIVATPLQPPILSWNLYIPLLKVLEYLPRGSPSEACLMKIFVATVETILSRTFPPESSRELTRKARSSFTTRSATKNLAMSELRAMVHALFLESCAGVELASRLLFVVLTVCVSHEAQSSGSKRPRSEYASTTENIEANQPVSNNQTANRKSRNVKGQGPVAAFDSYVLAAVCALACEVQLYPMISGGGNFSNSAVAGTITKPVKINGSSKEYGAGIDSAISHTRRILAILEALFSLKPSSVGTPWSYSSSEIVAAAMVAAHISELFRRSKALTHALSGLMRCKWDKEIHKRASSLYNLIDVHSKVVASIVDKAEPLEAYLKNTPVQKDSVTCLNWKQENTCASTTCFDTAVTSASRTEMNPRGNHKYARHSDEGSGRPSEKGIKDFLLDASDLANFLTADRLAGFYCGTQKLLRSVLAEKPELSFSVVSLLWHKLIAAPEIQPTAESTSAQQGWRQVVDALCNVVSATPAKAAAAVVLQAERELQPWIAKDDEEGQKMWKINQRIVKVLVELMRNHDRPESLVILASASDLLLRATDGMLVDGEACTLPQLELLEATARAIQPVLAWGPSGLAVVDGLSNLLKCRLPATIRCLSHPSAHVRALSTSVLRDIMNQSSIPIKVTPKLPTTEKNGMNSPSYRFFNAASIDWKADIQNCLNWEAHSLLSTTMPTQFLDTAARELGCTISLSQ

Variants of: B1
Settings: with gigan_arath GI

| Variant | effect of a mutation on the interaction |
| --- | --- |
| C82A | decreasing interaction strength |
| G46E | disrupting interaction strength |
| G119D | decreasing interaction strength |
